The target in the test is CD20 (human) (UniProt P11836). Briefly: cell-based or functional assay.
UniProt P11836, sequence (P11836 whole entry): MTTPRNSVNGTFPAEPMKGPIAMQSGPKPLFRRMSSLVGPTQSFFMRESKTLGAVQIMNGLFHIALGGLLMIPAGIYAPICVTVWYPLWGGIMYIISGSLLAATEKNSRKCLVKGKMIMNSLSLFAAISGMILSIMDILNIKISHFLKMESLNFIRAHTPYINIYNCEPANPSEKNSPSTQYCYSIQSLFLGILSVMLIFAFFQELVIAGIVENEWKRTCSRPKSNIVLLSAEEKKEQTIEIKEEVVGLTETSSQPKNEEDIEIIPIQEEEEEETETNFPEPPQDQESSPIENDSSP

“mAb1 IgG1 (equivalent to rituximab), unmodified IgG1 control (antibody)” displayed a Mean normalised apoptosis % (Ramos cells), with cross-linking mAb of 278%. For the substance mAb1 IgG1 mutant C220G (antibody), the Mean normalised apoptosis % (Ramos cells), with cross-linking mAb was found to be 359% and the Mean normalised apoptosis % (Ramos cells), without cross-linking mAb was 106%.

mAb1 IgG1 mutant G137E-G138S (antibody) yielded a Mean normalised apoptosis % (Ramos cells), with cross-linking mAb of 332% and a Mean normalised apoptosis % (Ramos cells), without cross-linking mAb of 78%. Taken in the same sequence, the figures for mAb1 IgG1 mutant H224P (antibody) were 322% and 106%.

For the origin of these results see patent EP2966085A1.
